Measured values taken from US20240173425A1 (Eli Lilly, published 2024).
Residue numbers refer to the chain shown, from its start. In names and notes the source's numbering stands.

B1: anti-human CD33 antibody Ab2 (antibody, human IgG1, kappa, L234A L235A, V domains shown)
VH: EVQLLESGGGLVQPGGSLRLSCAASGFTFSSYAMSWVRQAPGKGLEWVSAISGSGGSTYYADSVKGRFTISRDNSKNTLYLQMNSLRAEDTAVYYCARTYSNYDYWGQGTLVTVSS
VL: DIQMTQSPSSLSASVGDRVTITCQASQPTFNYLNWYQQKPGKAPKLLIYDASNLQTGVPSRFSGSGSGTDFTFTISSLQPEDIATYYCQQYEDLPTFGPGTKVDIKR
notes: Fully human IgG1AAA with S124C and A378C (EU numbering); also called anti-human CD33 Ab2
B2: anti-human CD33 Ab2 GC conjugate of Example 1b (antibody, human IgG1, kappa, L234A L235A, V domains shown)
VH: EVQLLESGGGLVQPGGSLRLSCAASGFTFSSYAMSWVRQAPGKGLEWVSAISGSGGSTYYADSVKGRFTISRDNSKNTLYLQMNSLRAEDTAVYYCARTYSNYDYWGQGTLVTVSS
VL: B1 VL
modifications: glucocorticoid receptor agonist payload-linker GC-L (Preparation 8, maleimide) conjugated to the engineered cysteines at positions 124 and 378 (EU numbering) of the heavy chain; n is 4 (average DAR 3.92 to 3.97)
B3: anti-human CD33 antibody Ab1 (antibody, human IgG1, kappa, L234A L235A, V domains shown)
VH: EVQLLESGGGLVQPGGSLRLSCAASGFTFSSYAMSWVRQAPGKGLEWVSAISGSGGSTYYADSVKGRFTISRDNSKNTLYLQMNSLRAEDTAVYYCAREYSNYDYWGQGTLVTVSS
VL: B1 VL with P28D, T29V, N31R
notes: Fully human IgG1 with L234A, L235A, P329A (IgG1AAA, effector null) and engineered cysteines S124C and A378C (EU numbering), all already in the HC entry
B4: anti-human CD33 antibody Ab3 (antibody, human IgG1, kappa, L234A L235A, V domains shown)
VH: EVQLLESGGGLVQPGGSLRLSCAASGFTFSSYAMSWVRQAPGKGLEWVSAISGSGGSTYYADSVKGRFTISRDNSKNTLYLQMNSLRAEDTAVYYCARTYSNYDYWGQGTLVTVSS
VL: B1 VL with F30Y, N31I
notes: Fully human IgG1AAA with S124C and A378C (EU numbering)

Columns and labels:
[1] = target: T1, human CD33 ECD 18-232-His (human, UniProt P20138 18-232); assay: SPR, Biacore 8K, antibody captured on Protein A chip, CD33 ECD-His as analyte, 37 C, 1:1 model
T1 construct: Printed as 'CD33 ECD 18-232-His'; also called human CD33 extra-cellular domain; not shown: His tag
Protocol: (§1) The affinity and binding kinetics of the exemplified anti-human CD33 antibodies to human and cynomolgus monkey CD33 ECD 18-232-His proteins was determined by surface plasmon resonance using Biacore 8K (GE Healthcare). Briefly, per the Instrument Handbook the antibody was captured on a Biacore Protein A chip followed by flowing CD33 ECD from 200 nM down to 0.782 nM in 2-fold serial dilution in PBS-P20-BSA (0.005% surfactant P20, 0.1 mg/mL BSA). All measurements were carried out at 37° C. Multi-cycle kinetics setting that ran each analyte concentration in a separate cycle regenerating the surface after each sample injection was used. The regeneration was optimized to maintain consistent surface properties from cycle to cycle. Each cycle started with a 3 minute injection of 0.1 μg/mL of the antibody at 10 μl/min flow rate, followed by 3 min injection of antigen at 50 μl/min flow rate and a 15 min dissociation phase in PBS-P20-BSA. The chip surface was then regenerated with 30 seconds injection of pH 1.5, 10 mM glycine buffer at 50 μl/min flow rate three times. The data was fit to a 1:1 binding model to derive kₐ and kd, and to calculate KD.

[2] = target: T2, cynomolgus monkey CD33 ECD 18-232-His (cynomolgus monkey); assay: as above
T2 construct: also called cynomolgus monkey CD33 extra-cellular domain; not shown: His tag
Protocol: as §1

[3] = target: T1, human CD33 ECD 18-232-His; assay: SPR, Biacore 8K, conjugate captured on Protein A chip, CD33 ECD-His as analyte, 37 C, 1:1 model
Protocol: as §1

[4] = target: T2, cynomolgus monkey CD33 ECD 18-232-His; assay: as above
Protocol: as §1

[5] = target: T3, human CD33 on the cell surface of human monocytes / myeloid cells (human, UniProt P20138 18-364); assay: FACS on human monocytes (gated from human PBMC), Alexa Fluor 647-labelled antibody, 4-fold dilutions, 30 min at 4 C, mean fluorescence intensity
T3 construct: Native CD33 on primary human monocytes from PBMC; also called cell surface CD33; SIGLEC-3
Protocol: Freshly isolated cells PBMCs were resuspended at 2×10⁶ cells/mL and allowed to rest for 15 minutes at room temperature, then plated at 100 μL/well into a round bottom 96-well plate (COSTAR®) and washed with FACS buffer (PBS containing 2% fetal bovine serum from Corning®). […] Data analysis was performed using FlowJo software and statistical analysis was performed using GraphPad Prism 9.

T1 sequence (P20138 18-232): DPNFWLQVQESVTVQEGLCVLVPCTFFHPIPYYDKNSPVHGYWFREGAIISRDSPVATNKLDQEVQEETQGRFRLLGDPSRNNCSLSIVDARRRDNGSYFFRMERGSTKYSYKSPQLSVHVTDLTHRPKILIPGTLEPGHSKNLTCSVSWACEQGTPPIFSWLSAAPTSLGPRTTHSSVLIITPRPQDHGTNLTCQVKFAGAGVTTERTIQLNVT
T2 sequence (chain, as listed by the source): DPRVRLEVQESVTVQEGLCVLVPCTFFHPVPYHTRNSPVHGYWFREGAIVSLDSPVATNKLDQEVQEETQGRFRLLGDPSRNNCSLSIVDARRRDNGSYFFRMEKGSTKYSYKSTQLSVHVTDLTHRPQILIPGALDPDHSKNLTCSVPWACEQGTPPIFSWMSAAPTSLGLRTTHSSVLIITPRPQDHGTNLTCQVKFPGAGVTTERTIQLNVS
T3 sequence (P20138 18-364 limits assumed): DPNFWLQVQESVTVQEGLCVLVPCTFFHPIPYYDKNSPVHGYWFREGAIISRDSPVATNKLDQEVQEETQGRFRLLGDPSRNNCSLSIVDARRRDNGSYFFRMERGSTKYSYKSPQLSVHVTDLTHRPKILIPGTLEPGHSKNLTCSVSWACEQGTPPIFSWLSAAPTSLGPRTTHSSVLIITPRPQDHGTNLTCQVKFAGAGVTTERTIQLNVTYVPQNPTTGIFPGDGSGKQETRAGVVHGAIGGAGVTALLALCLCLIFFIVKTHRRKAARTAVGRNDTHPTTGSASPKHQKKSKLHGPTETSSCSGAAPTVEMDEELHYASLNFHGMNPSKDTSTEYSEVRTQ

Binder | Kd [1] [nM] | koff [1] [s⁻¹] | kon [1] [M⁻¹ s⁻¹] | Kd [2] [nM] | koff [2] [s⁻¹] | kon [2] [M⁻¹ s⁻¹] | Kd [3] [nM] | koff [3] [s⁻¹] | kon [3] [M⁻¹ s⁻¹] | Kd [4] [nM] | koff [4] [s⁻¹] | kon [4] [M⁻¹ s⁻¹] | EC50 (read off the curve) [5] [ng/mL]
B1 | 1.14 | 0.000516 | 454000 | 4.28 | 0.00279 | 653000 | – | – | – | – | – | – | –
B2 | – | – | – | – | – | – | 1.47 | 0.000645 | 439000 | 4.65 | 0.00478 | 1.03e+06 | –
B3 | 3.4 | 0.00118 | 346000 | – | – | – | – | – | – | – | – | – | –
B4 | 0.854 | 0.000486 | 570000 | 0.812 | 0.00108 | 1.34e+06 | – | – | – | – | – | – | ~5
